Substitutions are numbered along the chain they refer to. Where a SMILES comes first, the peptide text is derived from it.
How the values were obtained:
[1] = biological target: T1, E. coli-derived S. cerevisiae NMT (Total E. coli NMT) (Saccharomyces cerevisiae, UniProt P14743, S2A); experiment: coupled in vitro assay for NMT activity, Total E. coli NMT; format: biochemical; conditions: 15 μM myristate; for Vmax, Total E. coli NMT: peptide substrate, percentage of Vmax with GNAAAARR and myristoyl-CoA; for Km: peptide substrate varied
T1 construct: intact 53 kDa (codon 2 Ser to Ala from cloning) plus 45 kDa truncated form
T1 sequence (P14743 1-455 S2A): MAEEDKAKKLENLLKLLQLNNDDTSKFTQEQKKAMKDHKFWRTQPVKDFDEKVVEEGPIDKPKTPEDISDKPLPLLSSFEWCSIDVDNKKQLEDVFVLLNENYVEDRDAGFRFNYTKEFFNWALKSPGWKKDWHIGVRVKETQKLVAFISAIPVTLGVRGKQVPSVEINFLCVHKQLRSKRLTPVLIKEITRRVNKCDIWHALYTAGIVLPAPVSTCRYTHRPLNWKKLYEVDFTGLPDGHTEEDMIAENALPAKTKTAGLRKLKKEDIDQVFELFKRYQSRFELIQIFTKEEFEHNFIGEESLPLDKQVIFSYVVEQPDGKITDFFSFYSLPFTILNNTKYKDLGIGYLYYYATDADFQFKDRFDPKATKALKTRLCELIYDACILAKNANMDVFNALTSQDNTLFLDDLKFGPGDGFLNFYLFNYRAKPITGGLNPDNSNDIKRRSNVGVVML
Procedure: (§1) In vitro assay system for NMT activity. To assess the peptide and acyl-CoA substrate specificities of E. coli-derived S. cerevisiae NMT, crude lysates or partially purified enzyme preparations were added to a coupled in vitro assay system [Towler and Glaser, Proc. Natl. Acad. Sci. USA 83, 2812-2816 (1986)]. The first step of this assay involves enzymatic conversion of radiolabeled fatty acids to their CoA thioesters by Pseudomonas acyl-CoA ligase. This ligase is largely nonspecific for fatty acid substrates [Shimizu et al., Anal. Biochem. 107, 193-198 (1980)]. Octapeptide substrates and NMT were then added to produce acylpeptides. Acylpeptides were purified from the reaction mixture by trichloroacetic acid/methanol precipitation and C18 reverse phase HPLC using a linear gradient of acetonitrile in water [Towler and Glaser, Proc. Natl. Acad. Sci. USA 83, 2812-2816 (1986)].
(§2) The peptide Km and Vmax values shown in the above Table I are averages obtained from 4- or 5-point Lineweaver-Burke plots. These plots were produced using data generated in at least three independent in vitro NMT assays. Varying concentrations of peptides were assayed with 15 μM myristate to determine peptide Km and Vmax values. […] Yeast NMT was from a 570 fold purified preparation [Towler et al., Proc. Natl. Acad. Sci. USA 84, 2708-2712 (1987)]. Synthetic peptide substrates are represented by their conventional one letter amino acid code. […] ND=not determined.

[2] = biological target: T2, 45 kDa E. coli NMT (NMT missing the NH2-terminal 39 residues) (Saccharomyces cerevisiae, UniProt P14743); experiment: coupled in vitro assay for NMT activity, 45 kDa E. coli NMT; format: biochemical, S. cerevisiae; conditions: for Vmax, 45 kDa E. coli NMT: percentage of Vmax with GNAAAARR and myristoyl-CoA; for Km: peptide substrate varied
T2 construct: S2A lies in the removed part
T2 sequence (P14743 40-455): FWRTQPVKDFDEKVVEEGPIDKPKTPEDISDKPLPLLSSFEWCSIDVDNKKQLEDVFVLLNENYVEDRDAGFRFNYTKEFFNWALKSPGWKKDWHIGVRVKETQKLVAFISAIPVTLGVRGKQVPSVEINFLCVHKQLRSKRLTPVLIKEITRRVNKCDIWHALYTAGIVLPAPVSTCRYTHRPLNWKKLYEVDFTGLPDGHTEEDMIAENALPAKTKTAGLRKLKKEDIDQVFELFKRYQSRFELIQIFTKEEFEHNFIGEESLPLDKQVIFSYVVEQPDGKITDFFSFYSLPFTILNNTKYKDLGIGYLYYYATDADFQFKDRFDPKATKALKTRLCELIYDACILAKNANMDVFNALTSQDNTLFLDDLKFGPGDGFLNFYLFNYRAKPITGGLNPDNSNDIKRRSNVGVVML
Procedure: as §1
To obtain a homogenous preparation of the enzyme, E. coli-produced NMT was further purified by Mono S fast protein liquid chromatography (FPLC).
as §2

[3] = biological target: T3, Yeast NMT (partially purified from S. cerevisiae) (Saccharomyces cerevisiae, UniProt P14743); experiment: coupled in vitro assay for NMT activity, Yeast NMT; format: biochemical; conditions: for Vmax, Yeast NMT: percentage of Vmax with GNAAAARR and myristoyl-CoA; for Km: peptide substrate varied, 570 fold purified preparation
T3 sequence (P14743 1-455): T1 sequence (P14743 1-455 S2A) with A2S
Procedure: as §1, §2

[4] = peptide substrate, 15 μM myristate
[5] = fatty acyl-CoA substrate, 60 μM GNAAAARR

Molecule	Vmax, Total E. coli NMT [1]	Vmax, 45 kDa E. coli NMT [2, 4]	reduction in apparent Km ([2]; relative to GNAAAARR-NH2, Mono S purified 45 kDa NMT)	Vmax, Yeast NMT [3, 4]	Km [1]	Vmax, 45 kDa E. coli NMT [2, 5]	Vmax, Yeast NMT [3, 5]	Km ([2]; 15 μM myristate)	Km ([3]; 15 μM myristate)
C[C@H](NC(=O)[C@H](C)NC(=O)[C@H](CC(N)=O)NC(=O)CN)C(=O)N[C@@H](CO)C(=O)N[C@@H](C)C(=O)N[C@@H](CCCNC(=N)N)C(=O)N[C@@H](CCCNC(=N)N)C(N)=O (H-GNAASARR-NH2)	3.6%	4.9%	100 fold	3%					
ANAAAARR	Not a substrate	Not a substrate		Not a substrate					
GPAAAARR [synthetic octapeptide substrate, one letter amino acid code]	21.6%	< 2%		< 2%	7100 µM				
MGNAAAARR	Not a substrate	Not a substrate		Not a substrate					
CCCCCCCCCCCCCC(=O)SCCNC(=O)CCNC(=O)[C@H](O)C(C)(C)COP(=O)(O)OP(=O)(O)OC[C@H]1O[C@@H](n2cnc3c(N)ncnc32)[C@H](O)[C@@H]1OP(=O)(O)O [Myristoyl-CoA]						100%	100%		
C[C@H](NC(=O)[C@H](C)NC(=O)[C@H](C)NC(=O)[C@H](CC(N)=O)NC(=O)CN)C(=O)N[C@@H](C)C(=O)N[C@@H](CCCNC(=N)N)C(=O)N[C@@H](CCCNC(=N)N)C(N)=O (H-GNAAAARR-NH2)	100%	100%		100%				62.5 µM	
GSSKSKPK [synthetic octapeptide substrate, one letter amino acid code]	33%	52%		43%	48.5 µM			66 µM	40 µM
GYAAAARR [synthetic octapeptide, one letter amino acid code]	< 2%	< 2%		Not a substrate					
ASSKSKPK [synthetic octapeptide, one letter amino acid code]	Not a substrate	Not a substrate		Not a substrate					
CCCOCCCCCCCCCC(=O)SCCNC(=O)CCNC(=O)[C@H](O)C(C)(C)COP(=O)(O)OP(=O)(O)OC[C@H]1O[C@@H](n2cnc3c(N)ncnc32)[C@H](O)[C@@H]1OP(=O)(O)O [11-oxamyristoyl-CoA]						450%	270%		
GNAADARR [synthetic octapeptide substrate, one letter amino acid code]	4.9%	< 2%		< 2%	503 µM				
GDAAAARR [synthetic octapeptide substrate, one letter amino acid code]	4.2%	< 2%		< 2%	645 µM				
CCCCCCCCCCCCCCCC(=O)SCCNC(=O)CCNC(=O)[C@H](O)C(C)(C)COP(=O)(O)OP(=O)(O)OC[C@H]1O[C@@H](n2cnc3c(N)ncnc32)[C@H](O)[C@@H]1OP(=O)(O)O [Palmitoyl-CoA]						22.4%	21%		
GSAASARR [synthetic octapeptide substrate, one letter amino acid code]	29%			34%	2.1 µM				3 µM
GSAAAARR [synthetic octapeptide substrate, one letter amino acid code]	27.6%			50%	697 µM				1700 µM

Reference: patent US5436138A, “Method for protein N-myristoylation” (Washington University, priority 1993, dated 1995)
